# In patent US20050221433A1:
# Molecular target: recombinant human IL-18 (human) (UniProt Q14116)
# Assay: cell-based or functional assay
# Chain of recombinant human IL-18 (human) (Q14116 37-193 limits assumed): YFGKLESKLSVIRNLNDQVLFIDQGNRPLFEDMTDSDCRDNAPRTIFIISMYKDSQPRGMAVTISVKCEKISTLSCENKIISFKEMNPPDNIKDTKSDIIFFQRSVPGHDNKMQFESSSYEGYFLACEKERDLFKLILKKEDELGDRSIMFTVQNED
# Chain of hIL18BPa (1-168).TG.hFc (O95998 other isoform, or with tags, fused parts or gaps): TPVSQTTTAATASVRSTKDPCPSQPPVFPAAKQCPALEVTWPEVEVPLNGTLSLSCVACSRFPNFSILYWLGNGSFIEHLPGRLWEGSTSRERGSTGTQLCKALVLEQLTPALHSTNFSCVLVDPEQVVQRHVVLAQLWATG
# Chain of hIL18BPa (58-192).TG.his (O95998 other isoform, or with tags, fused parts or gaps): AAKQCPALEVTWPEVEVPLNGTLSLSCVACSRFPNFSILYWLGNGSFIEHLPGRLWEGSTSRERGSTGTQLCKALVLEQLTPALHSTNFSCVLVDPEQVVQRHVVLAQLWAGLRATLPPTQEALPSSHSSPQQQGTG
# Chain of hIL18BPa (1-192).His (O95998 31-194): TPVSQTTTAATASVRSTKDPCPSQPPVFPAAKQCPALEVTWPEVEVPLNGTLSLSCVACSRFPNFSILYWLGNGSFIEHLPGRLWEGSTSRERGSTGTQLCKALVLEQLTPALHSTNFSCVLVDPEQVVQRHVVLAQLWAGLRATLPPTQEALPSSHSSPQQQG
# Chain of hIL18BPa (64-192).TG.hFc (O95998 other isoform, or with tags, fused parts or gaps): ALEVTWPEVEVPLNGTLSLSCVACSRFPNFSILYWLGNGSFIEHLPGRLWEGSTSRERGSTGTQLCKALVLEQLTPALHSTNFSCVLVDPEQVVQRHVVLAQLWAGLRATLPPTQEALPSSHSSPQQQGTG
row,Substance,"IC50 (M), HEK293/NFkB-luciferase bioassay"
1,hFc.TG.hIL18BPa (58-192) (C129S). (from UniProt O95998 60-194) (Fc fusion),1.51e-10 M
2,hIL18BPa (1-168).TG.hFc (from UniProt O95998 31-170) (Fc fusion),1.75e-09 M
3,hIL18BPa (1-192) (C129S).hFc (from UniProt O95998 31-194) (Fc fusion),2.05e-10 M
4,hIL18BPa (1-192).His (from UniProt O95998 31-194) (receptor),2.1e-10 M
5,hIL18BPa (58-192) (C129E).TG.hFc (from UniProt O95998 60-194) (Fc fusion),5.15e-10 M
6,hIL18BPa (58-192) (C129H).TG..hFc (from UniProt O95998 60-194) (Fc fusion),8.44e-11 M
7,hIL18BPa (58-192) (C129S).biot.His (from UniProt O95998 60-194) (receptor),4e-11 M
8,"hIL18BPa (58-192) (C129S, C148S).TG.hFc (from UniProt O95998 60-194) (Fc fusion)",7.3e-09 M
9,hIL18BPa (58-192)(C84S).TG.hFc (from UniProt O95998 60-194) (Fc fusion),7.38e-09 M
10,"hIL18BPa (58-192)(C87S, C129S).TG.hFc (from UniProt O95998 60-194) (Fc fusion)",7.5e-09 M
11,"hIL18BPa(58-192)(C62S, C129S, C148S).TG.hFc (from UniProt O95998 60-194) (Fc fusion)",6.7e-09 M

# Further lines, results first:
row,"IC50 (M), HEK293/NFkB-luciferase bioassay",Substance
1,2.06e-10 M,"hIL18BPa (1-192) (C49S, C129S).hIL18Rβ.hFc (Fc fusion)"
2,2.6e-05 M,hIL18BPa (1-192) (C84S).TG.hFc (from UniProt O95998 31-194) (Fc fusion)
3,7.56e-09 M,"hIL18BPa (58-192) (C62S, C87S, C129S).TG.hFc (from UniProt O95998 60-194) (Fc fusion)"
4,2.98e-09 M,hIL18BPa (58-192) (C129D).TG.hFc (from UniProt O95998 60-194) (Fc fusion)
5,7.42e-11 M,hIL18BPa (58-192) (C129K).TG.hFc (from UniProt O95998 60-194) (Fc fusion)
6,9e-09 M,"hIL18BPa (58-192)(C62S, C129S).TG.hFc (from UniProt O95998 60-194) (Fc fusion)"
7,9.7e-09 M,"hIL18BPa (58-192)(C87S, C129S, C148S).TG.hFc (from UniProt O95998 60-194) (Fc fusion)"
8,4.1e-10 M,hIL18BPa (58-192).TG.his (from UniProt O95998 60-194) (receptor)
9,7e-09 M,hIL18BPa (64-192).TG.hFc (from UniProt O95998 66-194) (Fc fusion)
10,2.3e-09 M,hIL18Rβ.SG.hIL18BPa (58-192).TG.hFc (Fc fusion)
11,1.38e-09 M,"hIL18Rβ.hIL18BPa (1-192) (C49S, C129S).hFc (Fc fusion)"
